Reference: patent US20200181257A1 (Chugai, published 2020)

T1: human Fcγ receptor hFcgRIIa (R) (human, UniProt P12318 36-217)
T1 construct: also called FcγRIIa (type R); FcγIIA
T1 chain: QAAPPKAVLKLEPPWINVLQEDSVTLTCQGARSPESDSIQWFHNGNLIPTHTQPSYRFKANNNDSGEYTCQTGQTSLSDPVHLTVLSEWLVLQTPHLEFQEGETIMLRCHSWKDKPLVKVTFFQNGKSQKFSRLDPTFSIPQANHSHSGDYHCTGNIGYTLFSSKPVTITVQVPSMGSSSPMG

T2: human Fcγ receptor hFcgRIIb (human, UniProt P31994 43-217, limits assumed)
T2 construct: Construct used in the SPR assay is not described; also called FcγRIIb; FcγIIB
T2 sequence: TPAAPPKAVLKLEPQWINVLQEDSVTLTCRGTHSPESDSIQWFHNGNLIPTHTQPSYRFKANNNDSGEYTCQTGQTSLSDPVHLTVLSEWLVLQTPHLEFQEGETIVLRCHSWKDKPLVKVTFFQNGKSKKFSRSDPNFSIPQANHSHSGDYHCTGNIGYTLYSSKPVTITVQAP

T3: human Fcγ receptor hFcgRIIa (H) (human, UniProt P12318 36-217)
T3 construct: also called FcγRIIa (type H); FcγIIA
T3 sequence: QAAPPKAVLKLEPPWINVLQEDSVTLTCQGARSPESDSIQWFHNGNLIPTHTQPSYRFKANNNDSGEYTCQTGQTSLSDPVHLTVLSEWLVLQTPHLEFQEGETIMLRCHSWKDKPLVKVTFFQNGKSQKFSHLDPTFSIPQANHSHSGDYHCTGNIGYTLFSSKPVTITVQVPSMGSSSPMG


Key:
Assay in all cases: SPR, antibody captured on Protein A
[1] = target: T1, human Fcγ receptor hFcgRIIa (R)
Protocol: (§1) Furthermore, binding ability to hFcgRs was measured by the method described in Reference Example 3.
(§2) Interactions between antibodies and hFcgRs (hFcgRIa, hFcgRIIa(R), hFcgRIIa(H), hFcgRIIb, hFcgRIIIa(F), and hFcgRIIIa(V)) were analyzed using Biacore T100 (GE Healthcare). HBS-EP+(GE Healthcare) was used for the running buffer, and the measurement temperature was set at 25° C. Protein A (Invitrogen) was immobilized by the amino coupling method, and an antibody of interest was captured thereon. Then, hFcγR solutions diluted using the running buffer were injected to allow interaction with the captured antibody at a flow rate of 30 μL/min for five minutes for hFcγRIa, and at a flow rate of 5 μL/min for one minute for the other hFcγRs. […] Since the hFcγR binding level depends on the amount of captured antibodies, the FcgR-binding levels were corrected so that the capture level of each antibody would be 200 RU (resonance unit) for hFcgRIa and 1000 RU (resonance unit) for the other hFcgRs. The captured antibodies were washed by allowing 10 mM glycine-HCl (pH 1.5) to react for 30 seconds at a flow rate of 30 μL/min to recycle the chip for reuse.

[2] = target: T2, human Fcγ receptor hFcgRIIb
Protocol: as §1, §2

[3] = target: T4, human Fcγ receptor hFcgRIa (human, UniProt P12314 16-292, limits assumed)
T4 construct: Construct used in the SPR assay is not described; also called hFcγRIa; FcγI
Protocol: as §1, §2

[4] = target: T5, human Fcγ receptor hFcgRIIIa (V) (human, UniProt P08637 17-208)
T5 construct: also called FcγRIIIa allotype V158; FcγIIIA
Protocol: as §1, §2

[5] = target: T3, human Fcγ receptor hFcgRIIa (H)
Protocol: as §1, §2

T5 sequence (P08637 other isoform, or with tags, fused parts or gaps limits assumed): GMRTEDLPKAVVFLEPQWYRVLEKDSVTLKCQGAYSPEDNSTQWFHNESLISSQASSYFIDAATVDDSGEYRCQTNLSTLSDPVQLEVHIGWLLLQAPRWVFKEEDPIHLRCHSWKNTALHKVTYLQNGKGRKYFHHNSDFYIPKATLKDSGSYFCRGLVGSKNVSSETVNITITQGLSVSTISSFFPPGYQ
T4 sequence (P12314 16-292 limits assumed): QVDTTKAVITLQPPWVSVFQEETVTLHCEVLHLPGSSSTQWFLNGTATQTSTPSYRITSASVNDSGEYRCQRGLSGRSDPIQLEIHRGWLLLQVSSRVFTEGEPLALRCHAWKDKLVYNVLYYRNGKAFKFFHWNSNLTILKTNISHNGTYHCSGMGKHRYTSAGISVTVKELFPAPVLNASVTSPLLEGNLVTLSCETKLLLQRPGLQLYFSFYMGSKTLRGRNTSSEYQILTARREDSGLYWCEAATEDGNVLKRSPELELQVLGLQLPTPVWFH

Row | binding relative to G1 (=100) [1] | binding relative to G1 (=100) [2] | binding relative to G1 (=100) [3] | binding relative to G1 (=100) [4] | binding relative to G1 (=100) [5] | Binder
1 | 2.1 |  | 5.1 | 1.6 | 0.7 | TS29 (antibody, anti-IL6R IgG1, G1d with L234K/L235K/S239K/H268K/D270F/Q295M/Y296G/S298G/N325H (EU)) heavy: QVQLQESGPGLVRPSQTLSLTCTVSGYSITSDHAWSWVRQPPGRGLEWIGYISYSGITTYNPSLKSRVTMLRDTSKNQFSLRLSSVTAADTAVYYCARSLARTTAMDYWGQGSLVTVSSASTKGPSVFPLAPSSKSTSGGTAALGCLVKDYFPEPVTVSWNSGALTSGVHTFPAVLQSSGLYSLSSVVTVPSSSLGTQTYICNVNHKPSNTKVDKKVEPKSCDKTHTCPPCPAPEKKGGPKVFLFPPKPKDTLMISRTPEVTCVVVDVSKEFPEVKFNWYVDGVEVHNAKTKPREEMGNGTYRVVSVLTVLHQDWLNGKEYKCKVSHKALPAPIEKTISKAKGQPREPQVYTLPPSRDELTKNQVSLTCLVKGFYPSDIAVEWESNGQPENNYKTTPPVLDSDGSFFLYSKLTVDKSRWQQGNVFSCSVMHEALHNHYTQKSLSLSP light: not shown
2 | 1.9 |  | 5.8 | 1.7 | 1.7 | TS28 (antibody, anti-IL6R IgG1, G1d with L234K/L235K/S239K/H268K/D270F/Q295M/Y296G/S298G/N325G (EU)) heavy: QVQLQESGPGLVRPSQTLSLTCTVSGYSITSDHAWSWVRQPPGRGLEWIGYISYSGITTYNPSLKSRVTMLRDTSKNQFSLRLSSVTAADTAVYYCARSLARTTAMDYWGQGSLVTVSSASTKGPSVFPLAPSSKSTSGGTAALGCLVKDYFPEPVTVSWNSGALTSGVHTFPAVLQSSGLYSLSSVVTVPSSSLGTQTYICNVNHKPSNTKVDKKVEPKSCDKTHTCPPCPAPEKKGGPKVFLFPPKPKDTLMISRTPEVTCVVVDVSKEFPEVKFNWYVDGVEVHNAKTKPREEMGNGTYRVVSVLTVLHQDWLNGKEYKCKVSGKALPAPIEKTISKAKGQPREPQVYTLPPSRDELTKNQVSLTCLVKGFYPSDIAVEWESNGQPENNYKTTPPVLDSDGSFFLYSKLTVDKSRWQQGNVFSCSVMHEALHNHYTQKSLSLSP light: not shown
3 | 2.3 |  | 0.3 | 0.9 | 1.7 | TS38 (antibody, anti-IL6R IgG1, G1d with L234K/L235R/S239K/Q295M/Y296G/S298G/N325G (EU)) heavy: QVQLQESGPGLVRPSQTLSLTCTVSGYSITSDHAWSWVRQPPGRGLEWIGYISYSGITTYNPSLKSRVTMLRDTSKNQFSLRLSSVTAADTAVYYCARSLARTTAMDYWGQGSLVTVSSASTKGPSVFPLAPSSKSTSGGTAALGCLVKDYFPEPVTVSWNSGALTSGVHTFPAVLQSSGLYSLSSVVTVPSSSLGTQTYICNVNHKPSNTKVDKKVEPKSCDKTHTCPPCPAPEKRGGPKVFLFPPKPKDTLMISRTPEVTCVVVDVSHEDPEVKFNWYVDGVEVHNAKTKPREEMGNGTYRVVSVLTVLHQDWLNGKEYKCKVSGKALPAPIEKTISKAKGQPREPQVYTLPPSRDELTKNQVSLTCLVKGFYPSDIAVEWESNGQPENNYKTTPPVLDSDGSFFLYSKLTVDKSRWQQGNVFSCSVMHEALHNHYTQKSLSLSP light: not shown
4 | 1.1 |  | 0.5 | 1.5 | 1.7 | TS35 (antibody, anti-IL6R IgG1, G1d with L234K/L235K/Q295M/Y296G/S298G/N325H (EU)) heavy: QVQLQESGPGLVRPSQTLSLTCTVSGYSITSDHAWSWVRQPPGRGLEWIGYISYSGITTYNPSLKSRVTMLRDTSKNQFSLRLSSVTAADTAVYYCARSLARTTAMDYWGQGSLVTVSSASTKGPSVFPLAPSSKSTSGGTAALGCLVKDYFPEPVTVSWNSGALTSGVHTFPAVLQSSGLYSLSSVVTVPSSSLGTQTYICNVNHKPSNTKVDKKVEPKSCDKTHTCPPCPAPEKKGGPSVFLFPPKPKDTLMISRTPEVTCVVVDVSHEDPEVKFNWYVDGVEVHNAKTKPREEMGNGTYRVVSVLTVLHQDWLNGKEYKCKVSHKALPAPIEKTISKAKGQPREPQVYTLPPSRDELTKNQVSLTCLVKGFYPSDIAVEWESNGQPENNYKTTPPVLDSDGSFFLYSKLTVDKSRWQQGNVFSCSVMHEALHNHYTQKSLSLSP light: not shown

Second part, the binder before the results:

Row | Binder | binding relative to G1 (=100) [1] | binding relative to G1 (=100) [2] | binding relative to G1 (=100) [3] | binding relative to G1 (=100) [4] | binding relative to G1 (=100) [5]
5 | TS21 (antibody, anti-IL6R IgG1, G1d with Q295M/K326A/A330Y (EU)) heavy: QVQLQESGPGLVRPSQTLSLTCTVSGYSITSDHAWSWVRQPPGRGLEWIGYISYSGITTYNPSLKSRVTMLRDTSKNQFSLRLSSVTAADTAVYYCARSLARTTAMDYWGQGSLVTVSSASTKGPSVFPLAPSSKSTSGGTAALGCLVKDYFPEPVTVSWNSGALTSGVHTFPAVLQSSGLYSLSSVVTVPSSSLGTQTYICNVNHKPSNTKVDKKVEPKSCDKTHTCPPCPAPELLGGPSVFLFPPKPKDTLMISRTPEVTCVVVDVSHEDPEVKFNWYVDGVEVHNAKTKPREEMYNSTYRVVSVLTVLHQDWLNGKEYKCKVSNAALPYPIEKTISKAKGQPREPQVYTLPPSRDELTKNQVSLTCLVKGFYPSDIAVEWESNGQPENNYKTTPPVLDSDGSFFLYSKLTVDKSRWQQGNVFSCSVMHEALHNHYTQKSLSLSP light: not shown | 113 | 121 | 107 | 124 | 
6 | TS23 (antibody, anti-IL6R IgG1, G1d with Q295L/K326A/A330Y (EU)) heavy: QVQLQESGPGLVRPSQTLSLTCTVSGYSITSDHAWSWVRQPPGRGLEWIGYISYSGITTYNPSLKSRVTMLRDTSKNQFSLRLSSVTAADTAVYYCARSLARTTAMDYWGQGSLVTVSSASTKGPSVFPLAPSSKSTSGGTAALGCLVKDYFPEPVTVSWNSGALTSGVHTFPAVLQSSGLYSLSSVVTVPSSSLGTQTYICNVNHKPSNTKVDKKVEPKSCDKTHTCPPCPAPELLGGPSVFLFPPKPKDTLMISRTPEVTCVVVDVSHEDPEVKFNWYVDGVEVHNAKTKPREELYNSTYRVVSVLTVLHQDWLNGKEYKCKVSNAALPYPIEKTISKAKGQPREPQVYTLPPSRDELTKNQVSLTCLVKGFYPSDIAVEWESNGQPENNYKTTPPVLDSDGSFFLYSKLTVDKSRWQQGNVFSCSVMHEALHNHYTQKSLSLSP light: not shown | 153 | 226 |  | 137 | 145
7 | TS27 (antibody, anti-IL6R IgG1, G1d with Q295L/K326A/A330H (EU)) heavy: QVQLQESGPGLVRPSQTLSLTCTVSGYSITSDHAWSWVRQPPGRGLEWIGYISYSGITTYNPSLKSRVTMLRDTSKNQFSLRLSSVTAADTAVYYCARSLARTTAMDYWGQGSLVTVSSASTKGPSVFPLAPSSKSTSGGTAALGCLVKDYFPEPVTVSWNSGALTSGVHTFPAVLQSSGLYSLSSVVTVPSSSLGTQTYICNVNHKPSNTKVDKKVEPKSCDKTHTCPPCPAPELLGGPSVFLFPPKPKDTLMISRTPEVTCVVVDVSHEDPEVKFNWYVDGVEVHNAKTKPREELYNSTYRVVSVLTVLHQDWLNGKEYKCKVSNAALPHPIEKTISKAKGQPREPQVYTLPPSRDELTKNQVSLTCLVKGFYPSDIAVEWESNGQPENNYKTTPPVLDSDGSFFLYSKLTVDKSRWQQGNVFSCSVMHEALHNHYTQKSLSLSP light: not shown | 158 | 242 | 106 |  | 151
8 | TS26 (antibody, anti-IL6R IgG1, G1d with Q295L/K326S/A330Y (EU)) heavy: QVQLQESGPGLVRPSQTLSLTCTVSGYSITSDHAWSWVRQPPGRGLEWIGYISYSGITTYNPSLKSRVTMLRDTSKNQFSLRLSSVTAADTAVYYCARSLARTTAMDYWGQGSLVTVSSASTKGPSVFPLAPSSKSTSGGTAALGCLVKDYFPEPVTVSWNSGALTSGVHTFPAVLQSSGLYSLSSVVTVPSSSLGTQTYICNVNHKPSNTKVDKKVEPKSCDKTHTCPPCPAPELLGGPSVFLFPPKPKDTLMISRTPEVTCVVVDVSHEDPEVKFNWYVDGVEVHNAKTKPREELYNSTYRVVSVLTVLHQDWLNGKEYKCKVSNSALPYPIEKTISKAKGQPREPQVYTLPPSRDELTKNQVSLTCLVKGFYPSDIAVEWESNGQPENNYKTTPPVLDSDGSFFLYSKLTVDKSRWQQGNVFSCSVMHEALHNHYTQKSLSLSP light: not shown | 145 | 208 | 107 | 134 | 
